Measured values reported in US20110086770A1.

T1: recombinant human DR 4 receptor Fc fusion protein (R&D Systems) (human)
T1 sequence (O00220 whole entry, looked up): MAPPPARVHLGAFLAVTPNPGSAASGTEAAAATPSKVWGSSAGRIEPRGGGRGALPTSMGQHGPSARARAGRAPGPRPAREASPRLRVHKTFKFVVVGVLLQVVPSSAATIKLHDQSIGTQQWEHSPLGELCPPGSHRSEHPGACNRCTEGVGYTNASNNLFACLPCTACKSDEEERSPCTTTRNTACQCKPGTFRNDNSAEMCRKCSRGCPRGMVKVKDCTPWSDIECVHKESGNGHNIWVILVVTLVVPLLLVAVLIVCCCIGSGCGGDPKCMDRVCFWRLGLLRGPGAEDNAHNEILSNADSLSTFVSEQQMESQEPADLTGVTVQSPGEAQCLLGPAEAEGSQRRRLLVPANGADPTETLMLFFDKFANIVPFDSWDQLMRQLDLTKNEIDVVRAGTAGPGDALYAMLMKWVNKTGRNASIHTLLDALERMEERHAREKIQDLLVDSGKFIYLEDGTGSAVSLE


Experiments:
[1] = molecular target: recombinant human DR 5 receptor Fc fusion protein (R&D Systems) (human); experiment: SPR (Biacore), captured DR5/Fc
Chain of recombinant human DR 5 receptor Fc fusion protein (R&D Systems) (human) (O14763 whole entry, the tested form may be a part): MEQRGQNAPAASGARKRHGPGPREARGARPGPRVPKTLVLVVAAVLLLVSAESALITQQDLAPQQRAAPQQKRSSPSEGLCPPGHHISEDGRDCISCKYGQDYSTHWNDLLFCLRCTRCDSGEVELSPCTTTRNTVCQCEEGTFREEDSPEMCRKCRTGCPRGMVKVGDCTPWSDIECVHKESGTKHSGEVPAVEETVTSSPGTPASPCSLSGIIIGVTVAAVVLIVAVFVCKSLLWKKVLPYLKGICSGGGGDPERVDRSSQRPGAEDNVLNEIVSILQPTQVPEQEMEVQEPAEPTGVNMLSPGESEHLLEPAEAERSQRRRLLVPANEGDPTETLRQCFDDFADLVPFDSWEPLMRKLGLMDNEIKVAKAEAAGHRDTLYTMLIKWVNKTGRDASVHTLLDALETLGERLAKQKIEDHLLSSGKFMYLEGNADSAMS

[2] = molecular target: T1, recombinant human DR 4 receptor Fc fusion protein (R&D Systems) (human); experiment: SPR (Biacore), captured DR4/Fc

Row | Ka [1] [M⁻¹] | Kd [1] [nM] | koff [1] [s⁻¹] | kon [1] [M⁻¹ s⁻¹] | Ka [2] [M⁻¹] | Kd [2] [nM] | koff [2] [s⁻¹] | kon [2] [M⁻¹ s⁻¹] | Binder
1 | 1.74e+08 | 5.74 | 0.000362 | 63000 |  |  |  |  | 4a8c (=A3C) DR 5 ATRIMER (designed binder, from a related filing, part only) EPPTQKPKKIVNAKKDVVNTKMFEELKSRLDTLAQEVALLKEQQALQTVCLKGTKVHMKCFLAFTQTKTFHEASEDCISRGGTLSTPQTGSENDALYEYLRQSVGNEAEIWLGLNRATLRPRWVDMTGARIAYKNWETEITAQPDGGKNCAVLSGAANGKWFDKRCRDQLPYICQFGIV
2 |  |  |  |  | 6.58e+06 | 152 | 0.00185 | 12200 | 014-42.3D10 ATRIMER (designed binder, part only; not given: nothing essential, part only) chain, part: EPPTQKPKKIVNAKKDVVNTKMFEELKSRLDTLAQEVALLKEQQALQTVCLKGTKVHMKCFLAFTQTKTFHEASEDCISRGGTLSTPQTGSENDALYEYLRQSVGNEAEIWLGLNVDMTGARIAYKNWETEITAQPCAVLSGAANGKWFDKRCRDQLPYICQFGIV
3 |  |  |  |  | 1.11e+08 | 9.01 | 0.00101 | 112000 | 014-42.3B8 ATRIMER (designed binder, part only; not given: nothing essential, part only) chain, part: EPPTQKPKKIVNAKKDVVNTKMFEELKSRLDTLAQEVALLKEQQALQTVCLKGTKVHMKCFLAFTQTKTFHEASEDCISRGGTLSTPQTGSENDALYEYLRQSVGNEAEIWLGLNVDMTGARIAYKNWETEITAQPCAVLSGAANGKWFDKRCRDQLPYICQFGIV
